What was measured:
P8A-bS = biological target: T1, P8A-bS; test: two-hybrid library CCNG1;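 further: natural log of median RNA to DNA barcode read ratio; higher means stronger binding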
T1 chain: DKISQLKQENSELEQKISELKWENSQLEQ

4H3189-bH = biological target: T2, 4H3189-bH; test: two-hybrid library CCNG1;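 further: natural log of median RNA to DNA barcode read ratio; higher means stronger binding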
T2 chain: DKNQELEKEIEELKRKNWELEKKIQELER

4H1193-bH = biological target: T3, 4H1193-bH; test: two-hybrid library CCNG1;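 further: natural log of median RNA to DNA barcode read ratio; higher means stronger binding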
T3 chain: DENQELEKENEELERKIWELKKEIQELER

4H687-bH = biological target: T4, 4H687-bH; test: two-hybrid library CCNG1;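 further: natural log of median RNA to DNA barcode read ratio; higher means stronger binding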
T4 chain: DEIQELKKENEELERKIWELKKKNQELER

4H918-bH = biological target: T5, 4H918-bH; test: two-hybrid library CCNG1
T5 chain: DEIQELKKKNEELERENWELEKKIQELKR

4H462-bH = biological target: T6, 4H462-bH; test: two-hybrid library CCNG1
T6 chain: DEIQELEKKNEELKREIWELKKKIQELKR

4H1328-bH = biological target: T7, 4H1328-bH; test: two-hybrid library CCNG1
T7 chain: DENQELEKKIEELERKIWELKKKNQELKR

4H2610-bH = biological target: T8, 4H2610-bH; test: two-hybrid library CCNG1
T8 chain: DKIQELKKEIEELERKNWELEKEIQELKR

4H3592-bH = biological target: T9, 4H3592-bH; test: two-hybrid library CCNG1
T9 chain: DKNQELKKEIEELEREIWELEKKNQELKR

4H953-bH = biological target: T10, 4H953-bH; test: two-hybrid library CCNG1
T10 chain: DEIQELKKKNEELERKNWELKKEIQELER

4H331-bH = biological target: T11, 4H331-bH; test: two-hybrid library CCNG1
T11 chain: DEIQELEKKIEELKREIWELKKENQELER

4H1406-bH = biological target: T12, 4H1406-bH; test: two-hybrid library CCNG1
T12 chain: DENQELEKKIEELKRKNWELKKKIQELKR

4H967-bH = biological target: T13, 4H967-bH; test: two-hybrid library CCNG1
T13 chain: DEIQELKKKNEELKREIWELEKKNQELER

4H607-bH = biological target: T14, 4H607-bH; test: two-hybrid library CCNG1
T14 chain: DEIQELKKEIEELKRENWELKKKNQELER

4H883-bH = biological target: T15, 4H883-bH; test: two-hybrid library CCNG1
T15 chain: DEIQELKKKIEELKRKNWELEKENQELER

4H2576-bH = biological target: T16, 4H2576-bH; test: two-hybrid library CCNG1
T16 chain: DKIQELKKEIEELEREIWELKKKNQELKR

4H4038-bH = biological target: T17, 4H4038-bH; test: two-hybrid library CCNG1
T17 chain: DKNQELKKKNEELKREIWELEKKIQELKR

4H3601-bH = biological target: T18, 4H3601-bH; test: two-hybrid library CCNG1
T18 chain: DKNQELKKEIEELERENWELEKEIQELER

4H3907-bH = biological target: T19, 4H3907-bH; test: two-hybrid library CCNG1
T19 chain: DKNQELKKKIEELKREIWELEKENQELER

4H3843-bH = biological target: T20, 4H3843-bH; test: two-hybrid library CCNG1
T20 chain: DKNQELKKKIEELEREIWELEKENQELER

4H2697-bH = biological target: T21, 4H2697-bH; test: two-hybrid library CCNG1
T21 chain: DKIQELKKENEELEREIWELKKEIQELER

4H1845-bH = biological target: T22, 4H1845-bH; test: two-hybrid library CCNG1
T22 chain: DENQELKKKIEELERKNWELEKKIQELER

4H3606-bH = biological target: T23, 4H3606-bH; test: two-hybrid library CCNG1
T23 chain: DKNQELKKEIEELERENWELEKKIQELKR

4H4001-bH = biological target: T24, 4H4001-bH; test: two-hybrid library CCNG1
T24 chain: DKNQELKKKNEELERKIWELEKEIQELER

4H1369-bH = biological target: T25, 4H1369-bH; test: two-hybrid library CCNG1
T25 chain: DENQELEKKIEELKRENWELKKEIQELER

4H2667-bH = biological target: T26, 4H2667-bH; test: two-hybrid library CCNG1
T26 chain: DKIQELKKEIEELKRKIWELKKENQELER

4H370-bH = biological target: T27, 4H370-bH; test: two-hybrid library CCNG1
T27 chain: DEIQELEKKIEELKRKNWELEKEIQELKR

4H797-bH = biological target: T28, 4H797-bH; test: two-hybrid library CCNG1
T28 chain: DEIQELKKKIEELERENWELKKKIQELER

4H1446-bH = biological target: T29, 4H1446-bH; test: two-hybrid library CCNG1
T29 chain: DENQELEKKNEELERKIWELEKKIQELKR

4H3782-bH = biological target: T30, 4H3782-bH; test: two-hybrid library CCNG1
T30 chain: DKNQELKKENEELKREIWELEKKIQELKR

4H568-bH = biological target: T31, 4H568-bH; test: two-hybrid library CCNG1
T31 chain: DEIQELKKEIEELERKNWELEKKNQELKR

4H1387-bH = biological target: T32, 4H1387-bH; test: two-hybrid library CCNG1
T32 chain: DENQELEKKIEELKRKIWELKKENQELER

4H72-bH = biological target: T33, 4H72-bH; test: two-hybrid library CCNG1
T33 chain: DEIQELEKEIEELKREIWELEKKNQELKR

Core_ININ-es_KEEK = biological target: T34, Core_ININ-es_KEEK; test: two-hybrid library CCmax; conditions: mean of both orientations
T34 chain: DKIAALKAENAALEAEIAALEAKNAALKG

DENQELEKENEELERKIWELKKEIQELER [4H1193-bH]
interaction score (P8A-bS): 0.622 | interaction score (4H3189-bH): -0.917 | interaction score (4H1193-bH): -0.399 | interaction score (4H687-bH): -0.482 | interaction score (4H918-bH): -1.33 | interaction score (4H462-bH): -1.11 | interaction score (4H1328-bH): 0.732 | interaction score (4H2610-bH): -0.0229 | interaction score (4H3592-bH): 0.341 | interaction score (4H953-bH): -1.33 | interaction score (4H331-bH): -0.0475 | interaction score (4H1406-bH): -0.835 | interaction score (4H967-bH): -0.174 | interaction score (4H607-bH): -1.7 | interaction score (4H883-bH): -0.574 | interaction score (4H2576-bH): 1.19 | interaction score (4H4038-bH): 1.52 | interaction score (4H3601-bH): 0 | interaction score (4H3907-bH): 0.0514 | interaction score (4H3843-bH): 0.181 | interaction score (4H2697-bH): -0.317 | interaction score (4H1845-bH): -0.0802 | interaction score (4H3606-bH): -0.559 | interaction score (4H4001-bH): 0.425 | interaction score (4H1369-bH): -0.969 | interaction score (4H2667-bH): -0.964 | interaction score (4H370-bH): -0.564 | interaction score (4H797-bH): -0.528 | interaction score (4H1446-bH): 0.131 | interaction score (4H3782-bH): 1.32 | interaction score (4H568-bH): -0.254 | interaction score (4H1387-bH): -0.684 | interaction score (4H72-bH): -0.782

DEIAALEAKNAALKAKIAALKAENAALEG [Core_ININ-es_EKKE]
interaction score (Core_ININ-es_KEEK): 2.15

From article PMC10397247
